Assay results taken from patent US20250215104A1 (WALDEN BIOSCIENCES, published 2025).

How the values were obtained:
[1] = molecular target: T1, cynomolgus soluble urokinase plasminogen activator receptor (suPAR) (cynomolgus, UniProt Q9GK78 23-303, limits assumed); test: off-rate (kdis) screen of scFv clones, biosensor (Octet)
T1 construct: Target antigen of the off-rate screen; also called cynomolgus uPAR; cynomolgus suPAR

[2] = molecular target: T2, human soluble urokinase plasminogen activator receptor (suPAR) (human, UniProt Q03405 23-303, limits assumed); test: as above
T2 construct: Target antigen of the off-rate screen; also called hsuPAR; human suPAR
T2 sequence (Q03405 23-303 limits assumed): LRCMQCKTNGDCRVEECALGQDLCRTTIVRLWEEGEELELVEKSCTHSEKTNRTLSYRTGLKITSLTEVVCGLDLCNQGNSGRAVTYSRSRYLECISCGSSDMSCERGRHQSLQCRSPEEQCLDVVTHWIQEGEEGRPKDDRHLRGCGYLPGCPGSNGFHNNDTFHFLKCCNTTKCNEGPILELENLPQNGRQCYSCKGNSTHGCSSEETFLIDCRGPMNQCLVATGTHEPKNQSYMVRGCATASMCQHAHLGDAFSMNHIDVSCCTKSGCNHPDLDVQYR

T1 sequence (Q9GK78 23-303 limits assumed): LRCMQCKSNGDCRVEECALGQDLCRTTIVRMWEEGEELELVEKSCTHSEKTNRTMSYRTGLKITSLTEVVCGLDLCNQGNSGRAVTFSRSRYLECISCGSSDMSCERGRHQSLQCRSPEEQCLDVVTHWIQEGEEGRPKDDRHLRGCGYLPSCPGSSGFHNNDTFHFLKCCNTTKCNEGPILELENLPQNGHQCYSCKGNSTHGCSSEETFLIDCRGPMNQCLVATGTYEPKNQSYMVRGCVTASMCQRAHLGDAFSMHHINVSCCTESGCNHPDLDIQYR

koff [1]	koff [2]	Binder
0.000181 s⁻¹	0.00407 s⁻¹	suPAR_DB01_B05 (scFv, V domains shown, screened as scFv) VH: QVQLVQSGAEVKKPGASVKVSCKASGYTFTNYYMHWVRQAPGQGLEWMGWIDPENGNTIYDQKFQGRVTMTRDTSTSTVYMELSSLRSEDTAVYYCARGYDVDWFVYWGQGTLVTVSS VL: DIQMTQSPSSLSASVGDRVTITCRASSSVSYMYWYQQKPGKAPKLLIYRTSNLASGVPSRFSGSGSGTDFTLTISSLQPEDFATYYCQQYHSYPPTFGGGTKVEIK
0.000303 s⁻¹	0.00403 s⁻¹	suPAR_DB01_C04 (scFv, V domains shown, screened as scFv) VH: QVQLVQSGAEVKKPGASVKVSCKASGYTFTGYYMHWVRQAPGQGLEWMGWIDPEGGSTIYDQKFQGRVTMTRDTSTSTVYMELSSLRSEDTAVYYCARGYDVDWFVYWGQGTLVTVSS VL: DIQMTQSPSSLSASVGDRVTITCSARSSVSYMYWYQQKPGKAPKLLIYRTSNLASGVPSRFSGSGSGTDFTLTISSLQPEDFATYYCQQYHSYPPTFGGGTKVEIK
8.96e-05 s⁻¹	0.00226 s⁻¹	suPAR_DB01_C11 (scFv, V domains shown, screened as scFv) VH: QVQLVQSGAEVKKPGASVKVSCKASGGTFTSYYMHWVRQAPGQGLEWMGWIDPENGSTIYDQKFQGRVTMTRDTSTSTVYMELSSLRSEDTAVYYCARGYDVDWFVYWGQGTLVTVSS VL: DIQMTQSPSSLSASVGDRVTITCSARSSVSYMYWYQQKPGKAPKLLIYRTSNLASGVPSRFSGSGSGTDFTLTISSLQPEDFATYYCQQYHSYPPTFGGGTKVEIK
5.62e-07 s⁻¹	0.00348 s⁻¹	suPAR_DB01_B06 (scFv, V domains shown, screened as scFv) VH: QVQLVQSGAEVKKPGASVKVSCKASGYTFTDYYMHWVRQAPGQGLEWMGWIDHENGNTIYDQKFQGRVTMTRDTSTSTVYMELSSLRSEDTAVYYCARGYDVDWFVYWGQGTLVTVSS VL: DIQMTQSPSSLSASVGDRVTITCRARSSVSYMYWYQQKPGKAPKLLIYRTSNLASGVPSRFSGSGSGTDFTLTISSLQPEDFATYYCQQYHSYPPTFGGGTKVEIK
0.000234 s⁻¹	0.00353 s⁻¹	suPAR_DB01_C02 (scFv, V domains shown, screened as scFv) VH: QVQLVQSGAEVKKPGASVKVSCKASGYTFNTYYMHWVRQAPGQGLEWMGWIDPENGNTIYDQKFQGRVTMTRDTSTSTVYMELSSLRSEDTAVYYCARGYDVDWFVYWGQGTLVTVSS VL: DIQMTQSPSSLSASVGDRVTITCSASSSVSYMYWYQQKPGKAPKLLIYRTSSLQSGVPSRFSGSGSGTDFTLTISSLQPEDFATYYCQQYHSYPPTFGGGTKVEIK
0.000506 s⁻¹	0.00109 s⁻¹	suPAR_DB01_D09 (scFv, V domains shown, screened as scFv) VH: QVQLVQSGAEVKKPGASVKVSCKASGYTFTNYYMHWVRQAPGQGLEWMGWIDHSNGNTIYAQKFQGRVTMTRDTSTSTVYMELSSLRSEDTAVYYCARGYDVDWFVYWGQGTLVTVSS VL: DIQMTQSPSSLSASVGDRVTITCSARSSVSYMYWYQQKPGKAPKLLIYRTSNLASGVPSRFSGSGSGTDFTLTISSLQPEDFATYYCQQYHSYPPTFGGGTKVEIK
0.000238 s⁻¹	0.00298 s⁻¹	suPAR_DB01_B12 (scFv, V domains shown, screened as scFv) VH: QVQLVQSGAEVKKPGASVKVSCKASGYTFTSYYMHWVRQAPGQGLEWMGWIDPENGNTIYDQKFQGRVTMTRDTSTSTVYMELSSLRSEDTAVYYCARGYDVDWFVYWGQGTLVTVSS VL: DIQMTQSPSSLSASVGDRVTITCSARSSVSYMYWYQQKPGKAPKLLIYRTSNLASGVPSRFSGSGSGTDFTLTISSLQPEDFATYYCQQYHSYPPTFGGGTKVEIK
0.000203 s⁻¹	0.00362 s⁻¹	suPAR_DB01_D03 (scFv, V domains shown, screened as scFv) VH: QVQLVQSGAEVKKPGASVKVSCKASGGTFTNYYMHWVRQAPGQGLEWMGWIDHENGNTIYDQKFQGRVTMTRDTSTSTVYMELSSLRSEDTAVYYCARGYDVDWFVYWGQGTLVTVSS VL: DIQMTQSPSSLSASVGDRVTITCSARSSVSYMYWYQQKPGKAPKLLIYRTSNLASGVPSRFSGSGSGTDFTLTISSLQPEDFATYYCQQYHSYPPTFGGGTKVEIK
0.000266 s⁻¹	0.00363 s⁻¹	suPAR_DB01_C10 (scFv, V domains shown, screened as scFv) VH: QVQLVQSGAEVKKPGASVKVSCKASGYTFTNYYMHWVRQAPGQGLEWMGWIDPENGNTIYAQKFQGRVTMTRDTSTSTVYMELSSLRSEDTAVYYCARGYDVDWFVYWGQGTLVTVSS VL: DIQMTQSPSSLSASVGDRVTITCRARSSISYMYWYQQKPGKAPKLLIYRTSNLASGVPSRFSGSGSGTDFTLTISSLQPEDFATYYCQQYHSYPPTFGGGTKVEIK
0.000419 s⁻¹	0.00224 s⁻¹	suPAR_DB01_D05 (scFv, V domains shown, screened as scFv) VH: QVQLVQSGAEVKKPGASVKVSCKASGYTFTGSYVHWVRQAPGQGLEWMGWIDHENGNTIYDQKFQGRVTMTRDTSTSTVYMELSSLRSEDTAVYYCARGYDVDWFVYWGQGTLVTVSS VL: DIQMTQSPSSLSASVGDRVTITCSARQSVSYMYWYQQKPGKAPKLLIYRTSNLASGVPSRFSGSGSGTDFTLTISSLQPEDFATYYCQQYHSYPPTFGGGTKVEIK
2.53e-05 s⁻¹	0.000872 s⁻¹	suPAR_DB01_D04 (scFv, V domains shown, screened as scFv) VH: QVQLVQSGAEVKKPGASVKVSCKASGYTFTSYYMHWVRQAPGQGLEWMGWIDHENGSTIYAQKFQGRVTMTRDTSTSTVYMELSSLRSEDTAVYYCARGYDVDWFVYWGQGTLVTVSS VL: DIQMTQSPSSLSASVGDRVTITCSARSSVSYMYWYQQKPGKAPKLLIYRTSNLASGVPSRFSGSGSGTDFTLTISSLQPEDFATYYCQQYHSYPPTFGGGTKVEIK
7.01e-07 s⁻¹	0.000666 s⁻¹	suPAR_DB01_D08 (scFv, V domains shown, screened as scFv) VH: QVQLVQSGAEVKKPGASVKVSCKASGYTFTSYYMHWVRQAPGQGLEWMGWIDHENGSTIYAQKFQGRVTMTRDTSTSTVYMELSSLRSEDTAVYYCARGYDVDWFVYWGQGTLVTVSS VL: DIQMTQSPSSLSASVGDRVTITCRASSSVSYMYWYQQKPGKAPKLLIYRTSNLASGVPSRFSGSGSGTDFTLTISSLQPEDFATYYCQQYHSYPPTFGGGTKVEIK
0.000105 s⁻¹	0.00493 s⁻¹	suPAR_DB01_C12 (scFv, V domains shown, screened as scFv) VH: QVQLVQSGAEVKKPGASVKVSCKASGDTFTSYYMHWVRQAPGQGLEWMGWIDHENGNTIYDQKFQGRVTMTRDTSTSTVYMELSSLRSEDTAVYYCARGYDVDWFVYWGQGTLVTVSS VL: DIQMTQSPSSLSASVGDRVTITCSARSSVSYMYWYQQKPGKAPKLLIYRTSNLASGVPSRFSGSGSGTDFTLTISSLQPEDFATYYCQQYHSYPPTFGGGTKVEIK
0.00042 s⁻¹	0.0013 s⁻¹	suPAR_DB01_C08 (scFv, V domains shown, screened as scFv) VH: QVQLVQSGAEVKKPGASVKVSCKASGYTFTGYYMHWVRQAPGQGLEWMGWIDHENGNTIYAQKFQGRVTMTRDTSTSTVYMELSSLRSEDTAVYYCARGYDVDWFVYWGQGTLVTVSS VL: DIQMTQSPSSLSASVGDRVTITCSARSSVSYMYWYQQKPGKAPKLLIYRTSNLASGVPSRFSGSGSGTDFTLTISSLQPEDFATYYCQQYHSYPPTFGGGTKVEIK
8.79e-05 s⁻¹	0.00273 s⁻¹	suPAR_DB01_B11 (scFv, V domains shown, screened as scFv) VH: QVQLVQSGAEVKKPGASVKVSCKASGYTFTDYYMHWVRQAPGQGLEWMGWIDHENGSTSYDQKFQGRVTMTRDTSTSTVYMELSSLRSEDTAVYYCARGYDVDWFVYWGQGTLVTVSS VL: DIQMTQSPSSLSASVGDRVTITCSARSSVSYMYWYQQKPGKAPKLLIYRTSNLASGVPSRFSGSGSGTDFTLTISSLQPEDFATYYCQQYHSYPPTFGGGTKVEIK
0.000343 s⁻¹	0.00425 s⁻¹	suPAR_DB01_D02 (scFv, V domains shown, screened as scFv) VH: QVQLVQSGAEVKKPGASVKVSCKASGYTFTSYYMHWVRQAPGQGLEWMGWIDPNTGDTNYAQKFQGRVTMTRDTSTSTVYMELSSLRSEDTAVYYCARGYDVDWFVYWGQGTLVTVSS VL: DIQMTQSPSSLSASVGDRVTITCRARSSVSYMYWYQQKPGKAPKLLIYRTSNLASGVPSRFSGSGSGTDFTLTISSLQPEDFATYYCQQYHSYPPTFGGGTKVEIK
0.000203 s⁻¹	0.00476 s⁻¹	suPAR_DB01_C09 (scFv, V domains shown, screened as scFv) VH: QVQLVQSGAEVKKPGASVKVSCKASGFNIKDYYIHWVRQAPGQGLEWMGWIDPENGNTIYAQKFQGRVTMTRDTSTSTVYMELSSLRSEDTAVYYCARGYDVDWFVYWGQGTLVTVSS VL: DIQMTQSPSSLSASVGDRVTITCSARSSVSYMYWYQQKPGKAPKLLIYRTSNLASGVPSRFSGSGSGTDFTLTISSLQPEDFATYYCQQYHSYPPTFGGGTKVEIK
0.000369 s⁻¹	0.000531 s⁻¹	suPAR_DB01_D01 (scFv, V domains shown, screened as scFv) VH: QVQLVQSGAEVKKPGASVKVSCKASGYTFTGYYMHWVRQAPGQGLEWMGWIDHENGSTIYAQKFQGRVTMTRDTSTSTVYMELSSLRSEDTAVYYCARGYDVDWFVYWGQGTLVTVSS VL: DIQMTQSPSSLSASVGDRVTITCSARSSVSYMYWYQQKPGKAPKLLIYRTSNLASGVPSRFSGSGSGTDFTLTISSLQPEDFATYYCQQYHSYPPTFGGGTKVEIK
0.000211 s⁻¹	0.00371 s⁻¹	suPAR_DB01_B08 (scFv, V domains shown, screened as scFv) VH: QVQLVQSGAEVKKPGASVKVSCKASGYTFTGYYMHWVRQAPGQGLEWMGWIDPENGSTIYDQKFQGRVTMTRDTSTSTVYMELSSLRSEDTAVYYCARGYDVDWFVYWGQGTLVTVSS VL: DIQMTQSPSSLSASVGDRVTITCSARSSVSYMYWYQQKPGKAPKLLIYRTSNLASGVPSRFSGSGSGTDFTLTISSLQPEDFATYYCQQYHSYPPTFGGGTKVEIK
0.00108 s⁻¹	0.00105 s⁻¹	suPAR_DB01_B10 (scFv, V domains shown, screened as scFv) VH: QVQLVQSGAEVKKPGASVKVSCKASGYTFSSYYMHWVRQAPGQGLEWMGWIDPENGSTIYDQKFQGRVTMTRDTSTSTVYMELSSLRSEDTAVYYCARGYDVDWFVYWGQGTLVTVSS VL: DIQMTQSPSSLSASVGDRVTITCSARQSVSSMYWYQQKPGKAPKLLIYRTSNLASGVPSRFSGSGSGTDFTLTISSLQPEDFATYYCQQYHSYPPTFGGGTKVEIK
2.66e-05 s⁻¹	0.00164 s⁻¹	suPAR_DB01_C07 (scFv, V domains shown, screened as scFv) VH: QVQLVQSGAEVKKPGASVKVSCKASGYTFTSYYMHWVRQAPGQGLEWMGWIDHENGSTSYDQKFQGRVTMTRDTSTSTVYMELSSLRSEDTAVYYCARGYDVDWFVYWGQGTLVTVSS VL: DIQMTQSPSSLSASVGDRVTITCRARQSVSYMYWYQQKPGKAPKLLIYRTSNLASGVPSRFSGSGSGTDFTLTISSLQPEDFATYYCQQYHSYPPTFGGGTKVEIK
